Data taken from patent US20110287512.

System: ZFN7263 linker TYPRPLLAKP (artificial)
Assay: cell_activity
Details: yeast, paired with 7264 ZFN

Q: For “ACTCTGATGGAAG (double strand) [7263 yeast half-site gap A]”, which activity (normalized MEL-1) is on record?
A: 0.69

Q: Which activity (normalized MEL-1) does the source give for “ACTCTGGTGGAAG (double strand) [7263 yeast half-site gap G]” here?
A: 2.21

Q: How did the activity (normalized MEL-1) turn out when “ACTCTGACTGGAAG (double strand) [7263 yeast half-site gap AC]” was run?
A: 0.1

Q: Which activity (normalized MEL-1) does the source give for “ACTCTGCTGGAAG (double strand) [7263 yeast half-site gap C]” here?
A: 0.37

System: ZFN7264 linker 1e (artificial)
Assay: cell_activity
Details: yeast, paired with 7263 ZFN

Q: Which activity (normalized MEL-1) does the source give for “AAAGCGTTGCTCCG (double strand) [7264 yeast half-site gap TT]” here?
A: 0.12

Q: For “AAAGCGGGCTCCG (double strand) [7264 yeast half-site gap G]”, which activity (normalized MEL-1) is on record?
A: 1.4

Q: “AAAGCGAGCTCCG (double strand) [7264 yeast half-site gap A]” was tested. Which activity (normalized MEL-1) did it give?
A: 1.24

Q: Which activity (normalized MEL-1) does the source give for “AAAGCGCGCTCCG (double strand) [7264 yeast half-site gap C]” here?
A: 0.14

System: ZFN7264 linker TGGGGSQKP (artificial)
Assay: cell_activity
Details: yeast, paired with 7263 ZFN

Q: “AAAGCGTTGCTCCG (double strand) [7264 yeast half-site gap TT]” was tested. Which activity (normalized MEL-1) did it give?
A: 0.12

Q: For “AAAGCGGGCTCCG (double strand) [7264 yeast half-site gap G]”, which activity (normalized MEL-1) is on record?
A: 0.14

Q: How did the activity (normalized MEL-1) turn out when “AAAGCGAGCTCCG (double strand) [7264 yeast half-site gap A]” was run?
A: 0.08

Q: For “AAAGCGCGCTCCG (double strand) [7264 yeast half-site gap C]”, which activity (normalized MEL-1) is on record?
A: 0.07

System: ZFN7263 linker TQRPQIPPKP (artificial)
Assay: cell_activity
Details: yeast, paired with 7264 ZFN

Q: “ACTCTGATGGAAG (double strand) [7263 yeast half-site gap A]” was tested. Which activity (normalized MEL-1) did it give?
A: 1.05

Q: How did the activity (normalized MEL-1) turn out when “ACTCTGGTGGAAG (double strand) [7263 yeast half-site gap G]” was run?
A: 2.18

Q: With “ACTCTGACTGGAAG (double strand) [7263 yeast half-site gap AC]” as the sequence, how does the activity (normalized MEL-1) read?
A: 0.03

Q: Which activity (normalized MEL-1) does the source give for “ACTCTGCTGGAAG (double strand) [7263 yeast half-site gap C]” here?
A: 0.43

System: ZFN7263 linker TPRPPIPKP (artificial)
Assay: cell_activity
Details: yeast, paired with 7264 ZFN

Q: With “ACTCTGATGGAAG (double strand) [7263 yeast half-site gap A]” as the sequence, how does the activity (normalized MEL-1) read?
A: 1.3

Q: How did the activity (normalized MEL-1) turn out when “ACTCTGGTGGAAG (double strand) [7263 yeast half-site gap G]” was run?
A: 2.18

Q: Which activity (normalized MEL-1) does the source give for “ACTCTGACTGGAAG (double strand) [7263 yeast half-site gap AC]” here?
A: 0.05

Q: With “ACTCTGCTGGAAG (double strand) [7263 yeast half-site gap C]” as the sequence, how does the activity (normalized MEL-1) read?
A: 1.41

System: ZFN7263 linker TGGGGSQKP (artificial)
Assay: cell_activity
Details: yeast, paired with 7264 ZFN

Q: For “ACTCTGATGGAAG (double strand) [7263 yeast half-site gap A]”, which activity (normalized MEL-1) is on record?
A: 0.14

Q: For “ACTCTGGTGGAAG (double strand) [7263 yeast half-site gap G]”, which activity (normalized MEL-1) is on record?
A: 0.6

Q: How did the activity (normalized MEL-1) turn out when “ACTCTGACTGGAAG (double strand) [7263 yeast half-site gap AC]” was run?
A: 0.04

Q: “ACTCTGCTGGAAG (double strand) [7263 yeast half-site gap C]” was tested. Which activity (normalized MEL-1) did it give?
A: 0.04

System: ZFN7264 linker TGLPKPKP (artificial)
Assay: cell_activity
Details: yeast, paired with 7263 ZFN

Q: How did the activity (normalized MEL-1) turn out when “AAAGCGTTGCTCCG (double strand) [7264 yeast half-site gap TT]” was run?
A: 0.11

Q: For “AAAGCGGGCTCCG (double strand) [7264 yeast half-site gap G]”, which activity (normalized MEL-1) is on record?
A: 0.42

Q: With “AAAGCGAGCTCCG (double strand) [7264 yeast half-site gap A]” as the sequence, how does the activity (normalized MEL-1) read?
A: 0.08

Q: For “AAAGCGCGCTCCG (double strand) [7264 yeast half-site gap C]”, which activity (normalized MEL-1) is on record?
A: 0.07

System: ZFN7263 linker TPLCQRPMKQKP (artificial)
Assay: cell_activity
Details: yeast, paired with 7264 ZFN

Q: Which activity (normalized MEL-1) does the source give for “ACTCTGATGGAAG (double strand) [7263 yeast half-site gap A]” here?
A: 0.97

Q: Which activity (normalized MEL-1) does the source give for “ACTCTGGTGGAAG (double strand) [7263 yeast half-site gap G]” here?
A: 1.52

Q: With “ACTCTGCTGGAAG (double strand) [7263 yeast half-site gap C]” as the sequence, how does the activity (normalized MEL-1) read?
A: 0.3

Same assay, conditions: yeast, paired with 7264 ZFN; value as printed

Q: Which activity (normalized MEL-1) does the source give for “ACTCTGACTGGAAG (double strand) [7263 yeast half-site gap AC]” here?
A: 1.05

System: ZFN7264 linker TSRPRPKP (artificial)
Assay: cell_activity
Details: yeast, paired with 7263 ZFN

Q: Which activity (normalized MEL-1) does the source give for “AAAGCGTTGCTCCG (double strand) [7264 yeast half-site gap TT]” here?
A: 0.03

Q: Which activity (normalized MEL-1) does the source give for “AAAGCGGGCTCCG (double strand) [7264 yeast half-site gap G]” here?
A: 0.61

Q: “AAAGCGAGCTCCG (double strand) [7264 yeast half-site gap A]” was tested. Which activity (normalized MEL-1) did it give?
A: 0.18

Q: For “AAAGCGCGCTCCG (double strand) [7264 yeast half-site gap C]”, which activity (normalized MEL-1) is on record?
A: 0.08

System: ZFN7263 (host) (artificial)
Assay: cell_activity
Details: yeast, paired with 7264 ZFN

Q: How did the activity (normalized MEL-1) turn out when “ACTCTGATGGAAG (double strand) [7263 yeast half-site gap A]” was run?
A: 0.05

Q: How did the activity (normalized MEL-1) turn out when “ACTCTGGTGGAAG (double strand) [7263 yeast half-site gap G]” was run?
A: 0.09

Q: Which activity (normalized MEL-1) does the source give for “ACTCTGACTGGAAG (double strand) [7263 yeast half-site gap AC]” here?
A: 0.09

Q: With “ACTCTGCTGGAAG (double strand) [7263 yeast half-site gap C]” as the sequence, how does the activity (normalized MEL-1) read?
A: 0.05

System: ZFN7263 linker TPNRCPPTKP (artificial)
Assay: cell_activity
Details: yeast, paired with 7264 ZFN

Q: How did the activity (normalized MEL-1) turn out when “ACTCTGATGGAAG (double strand) [7263 yeast half-site gap A]” was run?
A: 1.3

Q: How did the activity (normalized MEL-1) turn out when “ACTCTGGTGGAAG (double strand) [7263 yeast half-site gap G]” was run?
A: 2.85

Q: “ACTCTGACTGGAAG (double strand) [7263 yeast half-site gap AC]” was tested. Which activity (normalized MEL-1) did it give?
A: 0.04

Q: “ACTCTGCTGGAAG (double strand) [7263 yeast half-site gap C]” was tested. Which activity (normalized MEL-1) did it give?
A: 0.34

System: ZFN7264 (host, center linker TGSQKP) (synthetic)
Assay: cell_activity
Details: yeast, partner ZFN7263; host on 0-bp gap = 1.00; host data same as Table 9

Q: Which activity (normalized MEL-1) does the source give for “AAAGCGTTGCTCCG (double strand) [7264 yeast half-site gap TT]” here?
A: 0.09

Q: With “AAAGCGGGCTCCG (double strand) [7264 yeast half-site gap G]” as the sequence, how does the activity (normalized MEL-1) read?
A: 0.09

Q: With “AAAGCGAGCTCCG (double strand) [7264 yeast half-site gap A]” as the sequence, how does the activity (normalized MEL-1) read?
A: 0.05

Q: With “AAAGCGCGCTCCG (double strand) [7264 yeast half-site gap C]” as the sequence, how does the activity (normalized MEL-1) read?
A: 0.05
